According to the Human Domainome abundance scans (Beltran et al. 2025):
± gives the uncertainty stated by the source.

B1: Formin-binding protein 4, residues 593 to 636; numbered along this chain, Q8N3X1 (parent)
chain: EINATPKGWSCHWDRDHRRYFYVNEQSGESQWEFPDGEEEEEES

Variants of: B1
Experiment: abundance fitness (aPCA) (normalised: wild type 0, dead -1); higher = more abundant; growth selection in yeast, the domain comes from the species named
Conditions: Homo sapiens

Abundance fitness: each site, then its substitutions
N3: S -0.072 ± 0.12; L -0.239 ± 0.11; Q 0.041 ± 0.084; V -0.093 ± 0.11; C -0.304 ± 0.2; R -0.169 ± 0.085; T -0.355 ± 0.48; E 0.185 ± 0.15; A -0.177 ± 0.088; M 0.323 ± 0.24; D 0.157 ± 0.34; H -0.128 ± 0.15; G -0.098 ± 0.071
N24: D -0.362 ± 0.085; E -0.335 ± 0.082; C -0.226 ± 0.18; F -0.687 ± 0.31; I -1.14 ± 0.15; G -0.611 ± 0.059; A -0.62 ± 0.068; L -1 ± 0.082; K -0.23 ± 0.13
Y20: N -0.059 ± 0.25; E -0.488 ± 0.078; K -0.319 ± 0.28; G -0.605 ± 0.063; W 0.072 ± 0.07; P -0.143 ± 0.1; Q -0.285 ± 0.16; M -0.205 ± 0.12; A -0.3 ± 0.065; D -0.64 ± 0.13; C -0.196 ± 0.12; S -0.353 ± 0.08; R -0.229 ± 0.068; V -0.206 ± 0.068; T -0.277 ± 0.11
R18: V -0.421 ± 0.1; W -0.571 ± 0.081; C -0.183 ± 0.22; L 0.016 ± 0.089; M -0.124 ± 0.13; T -0.344 ± 0.093; A 0.012 ± 0.071; G 0.063 ± 0.061; P -0.635 ± 0.15; H -0.11 ± 0.16
K7: A -0.079 ± 0.093; S -0.214 ± 0.14; V -0.065 ± 0.12; D -0.123 ± 0.4; H 0.125 ± 0.48; G -0.577 ± 0.15; T -0.456 ± 0.27; R -0.074 ± 0.1; F -0.303 ± 0.1; L -0.299 ± 0.1
S10: T -0.288 ± 0.24; Y -0.521 ± 0.43; K -0.212 ± 0.15; M -0.389 ± 0.15; V -0.186 ± 0.1; D -0.465 ± 0.11; G -0.528 ± 0.095; E -0.381 ± 0.11; L -0.345 ± 0.12; W -1.06 ± 0.12; R -0.265 ± 0.085; Q -0.183 ± 0.15; P -0.91 ± 0.15; H -0.502 ± 0.29
R15: P -0.118 ± 0.1; W -0.315 ± 0.1; Q 0.139 ± 0.16; I 0.373 ± 0.23; C -0.204 ± 0.088; H 0.116 ± 0.096; F -0.188 ± 0.21; T -0.162 ± 0.29; M -0.18 ± 0.11; Y -0.302 ± 0.2; E 0.123 ± 0.07; S 0.019 ± 0.093; N -0.05 ± 0.12; K 0.14 ± 0.11; A -0.059 ± 0.073; G -0.032 ± 0.061; L -0.167 ± 0.082; D -0.007 ± 0.15
G8: R -0.621 ± 0.11; A -0.707 ± 0.08; Q -0.612 ± 0.14; S -0.623 ± 0.13; M -0.605 ± 0.14; T -0.843 ± 0.27; K -0.408 ± 0.2; C -0.471 ± 0.16; E -0.438 ± 0.18; N -0.373 ± 0.16; I -0.496 ± 0.14; L -0.795 ± 0.13; V -0.664 ± 0.14
D16: G -0.239 ± 0.061; K -0.169 ± 0.084; Q -0.075 ± 0.12; F -0.362 ± 0.17; C -0.225 ± 0.089; A -0.234 ± 0.063; H -0.168 ± 0.088; L -0.447 ± 0.069; V -0.253 ± 0.08; W -0.218 ± 0.069; T -0.064 ± 0.14; R -0.274 ± 0.059; S -0.24 ± 0.09
Y22: G -0.544 ± 0.081; S -0.322 ± 0.087; W 0.035 ± 0.08; A -0.572 ± 0.079; N -0.092 ± 0.29; E -0.482 ± 0.2; K 0.291 ± 0.34; Q -0.439 ± 0.099; I -0.515 ± 0.17; V -0.692 ± 0.075; T -0.402 ± 0.12; D -0.552 ± 0.17; M -0.492 ± 0.16
F21: E -0.145 ± 0.089; V 0.113 ± 0.067; M -0.048 ± 0.16; L -0.051 ± 0.083; K -0.067 ± 0.11; T -0.111 ± 0.16; C 0.058 ± 0.087; Q -0.223 ± 0.19; H -0.391 ± 0.11; A -0.179 ± 0.064; G -0.368 ± 0.058; R 0.187 ± 0.06; P -0.303 ± 0.093; W -0.275 ± 0.086
E1: V -0.499 ± 0.16; K 0.036 ± 0.12; A -0.14 ± 0.15; N -0.304 ± 0.34; D -0.154 ± 0.15; G -0.433 ± 0.11; W -0.061 ± 0.41; M -0.019 ± 0.2; R -0.186 ± 0.23
H12: S -0.453 ± 0.1; M -0.498 ± 0.13; L -0.306 ± 0.073; G -0.379 ± 0.075; E -0.049 ± 0.13; P -0.822 ± 0.15; T -0.407 ± 0.26; C -0.302 ± 0.14; N -0.287 ± 0.18; Q -0.432 ± 0.2; Y -0.227 ± 0.15; W -0.637 ± 0.094; R -0.17 ± 0.07; D -0.646 ± 0.14; K -0.179 ± 0.097; V -0.21 ± 0.074
